Biological target: HER3 receptor on cells (HER3-transfected NIH 3T3 fibroblasts; SKBR3 cells; BxPC3 cells) (human) (UniProt P21860)
Test: flow cytometry competition on SKBR3 cells; HRG varied against anti-HER3 antibody (H4B-121, control antibody D) at its 50% maximal binding concentration

IC50: 2.5 nM
Substance: heregulin (from UniProt Q02297 177-241) (ligand)

Source: patent US20140141019A1
